Measured values reported in the supplement of paper PMC10724198.
± gives the standard deviation of the averaged measurements.

Tested on: Saccharomyces cerevisiae
Assay: protein stability index of tFT-peptide fusion (C-terminal peptide) (PSI (0-1 scale)); higher = more stable (slower turnover)
Details: genetic background: wild type; temperature: 30 C
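Also: PSI is a weighted mean of sequencing reads over stability bins, variants kept only with over 10 reads, mCherry proximal and sfGFP distal, peptide attached via GGGS linker.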

Sequence	protein stability index
PLLIPPPPTYPP	0.63 ± 0.038
PLLLAPPPPSPP	0.739 ± 0.036
PLLPPALPASPF	0.6972 ± 0.0019
PLLPPPLSPFPH	0.659 ± 0.013
PLLPPPPPLSPP	0.6772 ± 0.0035
PLLPRSILSATG	0.641 ± 0.043
PLLPRTPPLSAT	0.671 ± 0.0079
PLLPSLPLPPSP	0.716 ± 0.011
PLLRGFPAHLAS	0.699 ± 0.078
PLNHIVHPHRAP	0.687 ± 0.0052
PLPAPAPSPPSP	0.695 ± 0.018
PLPHSPPPPPPT	0.736 ± 0.024
PLPLLPLPPLAP	0.67 ± 0.098
PLPLPPPFPPLS	0.59 ± 0.043
PLPLPSPAPPYS	0.68 ± 0.013
PLPLPTPPAFLS	0.707 ± 0.08
PLPPASPCLCSY	0.643 ± 0.049
PLPPHRLPNPRL	0.784 ± 0.011
PLPPLPPPLSPP	0.732 ± 0.067
PLPPLPPTRPLP	0.688 ± 0.026
PLPPPFPGSALL	0.727 ± 0.01
PLPPPLDLPPRS	0.735 ± 0.12
PLPPPNPPLPVF	0.615 ± 0.036

Sequence	protein stability index
PLPPPPAPPLSP	0.67 ± 0.018
PLPPPPDSPPLP	0.694 ± 0.013
PLPPPSLPPSPS	0.699 ± 0.036
PLPPSPLESVDT	0.637 ± 0.027
PLPPSPTRPPAN	0.662 ± 0.0099
PLPPVPRTPTPR	0.662 ± 0.075
PLPPVVPTFSTP	0.684 ± 0.0077
PLPRLSPFSHPP	0.701 ± 0.052
PLPSPSSSSSPI	0.674 ± 0.043
PLRDIRSVRYSS	0.685 ± 0.053
PLRMFRGGISWR	0.734 ± 0.037
PLRPPAPRHSPP	0.723 ± 0.013
PLRRPFSSPFLL	0.59 ± 0.067
PLRSDSRAESLL	0.653 ± 0.051
PLRSTYPSLLLP	0.691 ± 0.011
PLRTCPCAPLPS	0.689 ± 0.012
PLSDDPRRPLST	0.688 ± 0.069
PLSLLVHPLPPS	0.679 ± 0.011
PLSPAPPRPPPP	0.621 ± 0.023
PLSPRPLPPPPP	0.713 ± 0.0018
PLSPRSASTFSP	0.67 ± 0.0013
PLSPSCTLPPRP	0.674 ± 0.034
PLSTPLSPALLS	0.602 ± 0.023

Sequence	protein stability index
PLSYRPPSRFYF	0.587 ± 0.061
PLTRSRFLLSPL	0.653 ± 0.034
PLTVARTHRGHA	0.689 ± 0.014
PLVVETNRFGDV	0.6988 ± 0.004
PMHVILGLSGQP	0.732 ± 0.059
PMLRSLVVLSSR	0.669 ± 0.022
PMPRHVPRPTTP	0.674 ± 0.06
PNPLCQPPTGRP	0.705 ± 0.14
PNPPYFPSPGRS	0.74 ± 0.044
PNRKCSGTFAAS	0.65573 ± 0.00064
PNTNIRTHCQWI	0.709 ± 0.02
PNVAIMSGGQTV	0.6912 ± 0.0059
PPACAHPLFWTL	0.6499 ± 0.00087
PPACPSSRIPVF	0.615 ± 0.041
PPALRPPPPPPP	0.6932 ± 0.0019
PPAPHPHLPSSY	0.685 ± 0.072
PPAPLPLAPSSL	0.722 ± 0.042
PPAPPLPSSPSP	0.773 ± 0.024
PPAPPSPPHPPL	0.7133 ± 0.0036
PPAPRLPPPLPP	0.629 ± 0.021
PPAPSPPPLPAA	0.665 ± 0.031
PPASFTPPFLPP	0.69 ± 0.013
PPASPRSPIVSR	0.723 ± 0.059

Sequence	protein stability index
PPATQSPPLPPC	0.766 ± 0.037
PPCFPHPLPPPR	0.744 ± 0.022
PPCPFPTLPVTH	0.73 ± 0.013
PPCTSTTQRANP	0.696 ± 0.073
PPDLPTRSPDNP	0.658 ± 0.04
PPDSSPLGGEVG	0.6775 ± 0.0058
PPFAPAPALSAS	0.758 ± 0.11
PPFFFIDMGASN	0.697 ± 0.054
PPFFPLRPSLVL	0.656 ± 0.051
PPFLRSALRSSS	0.672 ± 0.015
PPFLYVLVSSIL	0.54 ± 0.15
PPFPHPSRLPPA	0.726 ± 0.028
PPFPPAPPRGPA	0.659 ± 0.043
PPGLPPGPARPP	0.635 ± 0.036
PPGPPPSSPPPP	0.73 ± 0.024
PPGSPPSLHLPP	0.734 ± 0.021
PPHCPLVLPSLS	0.67 ± 0.044
PPHHPPPTLFPA	0.698 ± 0.076
PPHNPTPSPTTP	0.719 ± 0.11
PPHPLSLSLRPP	0.634 ± 0.034
PPHPPLPPPSPS	0.704 ± 0.056
PPHPPNFSSPPP	0.656 ± 0.023
PPHPPPPAPLPS	0.73 ± 0.029

Sequence	protein stability index
PPHPPPPSPTPP	0.656 ± 0.019
PPHPVTLSPART	0.614 ± 0.04
PPHTHTQRPSPT	0.715 ± 0.027
PPILLPPPDASH	0.702 ± 0.025
PPINPTEPPITI	0.696 ± 0.092
PPIPNPPPHPLP	0.657 ± 0.057
PPLCRSFPPASL	0.791 ± 0.061
PPLFTAAPRRWS	0.752 ± 0.093
PPLLDASPAPIL	0.689 ± 0.024
PPLLLTSLMLLP	0.655 ± 0.034
PPLLPPVSPPPP	0.684 ± 0.061
PPLLQPPPPRLL	0.736 ± 0.048
PPLPATHLPPPP	0.802 ± 0.058
PPLPLLPPLPPP	0.644 ± 0.034
PPLPLPSPPTPH	0.654 ± 0.021
PPLPLTSPPPSP	0.631 ± 0.024
PPLPPAPTPALP	0.684 ± 0.029
PPLPPPFSPLPP	0.686 ± 0.025
PPLPPPLLPFSI	0.747 ± 0.019
PPLPPPPPAPAP	0.634 ± 0.016
PPLPPPPRSPPS	0.7565 ± 0.0021
PPLPPPSPESVS	0.709 ± 0.056
PPLPPSPPRSPP	0.552 ± 0.029

Sequence	protein stability index
PPLPSPPAPPAP	0.655 ± 0.0086
PPLPSPPQPYSA	0.639 ± 0.013
PPLPSSLPPISF	0.703 ± 0.015
PPLRPFLLPPPS	0.722 ± 0.077
PPLRPHHPLYHS	0.687 ± 0.011
PPLSLLPSSSPH	0.664 ± 0.0081
PPLSPTLTIPPP	0.698 ± 0.079
PPLSSSALPARS	0.692 ± 0.011
PPLTPPTPVPPG	0.6937 ± 0.0056
PPLTVRPFPFRV	0.662 ± 0.015
PPLVSPPPPLPP	0.62 ± 0.015
PPNPFPALRSSP	0.7324 ± 0.0011
PPPAPPGPRYRR	0.696 ± 0.025
PPPAPPHPPLRH	0.682 ± 0.027
PPPAPPLILVLP	0.539 ± 0.0037
PPPAPPLSPPPH	0.653 ± 0.038
PPPAPPPHRDLS	0.709 ± 0.057
PPPAPPPPLRLL	0.721 ± 0.046
PPPARPAPLSPP	0.692 ± 0.08
PPPASSPPPSAS	0.626 ± 0.062
PPPCPHLAPRLP	0.714 ± 0.071
PPPCPHRDGTSP	0.664 ± 0.05
PPPCRSLPLLPP	0.6546 ± 0.005

Sequence	protein stability index
PPPDTPSPPSSL	0.668 ± 0.026
PPPFRPPPRLYS	0.693 ± 0.025
PPPFRTPPSRRP	0.739 ± 0.057
PPPGPSPLAAPP	0.654 ± 0.056
PPPGRPDAMTPP	0.676 ± 0.022
PPPGSPLPPPRA	0.702 ± 0.036
PPPILFTEPPLA	0.738 ± 0.0049
PPPIPLSPPLVL	0.72 ± 0.014
PPPIPPFRLSRS	0.69 ± 0.061
PPPLLPPTPLPP	0.619 ± 0.0069
PPPLPLPPPPPP	0.58 ± 0.048
PPPLPPPAPPPR	0.663 ± 0.014
PPPLPPPLPLCS	0.675 ± 0.023
PPPLPPPYPPPP	0.627 ± 0.016
PPPLPSPPRPPS	0.734 ± 0.045
PPPLPTRPPPSA	0.649 ± 0.0082
PPPLRTHTGPPP	0.678 ± 0.0069
PPPLSPPLPFFV	0.666 ± 0.036
PPPLSSPPPRPL	0.709 ± 0.058
PPPLTPPPPPPR	0.725 ± 0.014
PPPNPHAASTHH	0.654 ± 0.0077
PPPPAFPPPLSP	0.716 ± 0.067
